The values that follow come from PMC11020753, “Contribution of amino acids in the active site of dipeptidyl peptidase 4 to the catalytic action of the enzyme” (PLOS ONE, 2024).

As usually defined, the Km is the concentration of substrate that gives half-maximal velocity. A word on the kcat: it is the maximal rate divided by the concentration of active sites.

Type in all cases: biochemical
The target of one assay is T1, DP4 variant E205A (Homo sapiens, UniProt P27487, E205A).
T1 construct: His(6)-37-766 hDP4 containing fractions were concentrated to 1 ml as described above; His6 (N); made in house; host or cells: Pichia pastoris X-33, vector pPICZα C (secreted)
T1 sequence (P27487 37-766 E205A): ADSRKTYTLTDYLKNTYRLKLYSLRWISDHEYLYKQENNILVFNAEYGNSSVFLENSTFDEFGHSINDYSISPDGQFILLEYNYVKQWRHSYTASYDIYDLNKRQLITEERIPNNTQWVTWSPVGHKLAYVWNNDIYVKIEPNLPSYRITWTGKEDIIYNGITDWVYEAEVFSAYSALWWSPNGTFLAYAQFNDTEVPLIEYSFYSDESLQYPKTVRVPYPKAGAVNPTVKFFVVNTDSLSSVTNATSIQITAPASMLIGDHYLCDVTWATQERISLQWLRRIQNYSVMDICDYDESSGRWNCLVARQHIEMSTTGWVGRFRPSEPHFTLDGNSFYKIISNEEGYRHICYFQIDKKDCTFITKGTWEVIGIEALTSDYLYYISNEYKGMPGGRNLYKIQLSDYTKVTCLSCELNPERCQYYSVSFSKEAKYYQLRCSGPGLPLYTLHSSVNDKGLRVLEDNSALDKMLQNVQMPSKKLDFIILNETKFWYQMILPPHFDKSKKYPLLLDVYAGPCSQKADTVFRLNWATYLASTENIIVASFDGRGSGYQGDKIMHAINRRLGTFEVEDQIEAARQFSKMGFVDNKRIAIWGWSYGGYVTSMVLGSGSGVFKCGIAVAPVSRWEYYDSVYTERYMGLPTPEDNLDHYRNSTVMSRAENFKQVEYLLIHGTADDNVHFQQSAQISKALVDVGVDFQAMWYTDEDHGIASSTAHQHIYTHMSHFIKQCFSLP
The assay can be described thus: Km and kcat determination by LC/MS-MS assay. Particulars: hydrolysis of peptide hormone, 10 mM Tris-buffer (pH 7.6), T = 30 °C. The procedure:
(§1) Therefore, DP4 was incubated with different substrate concentrations in 10 mM Tris-buffer pH 7.6 at 30°C. Enzyme concentrations and incubation times were chosen to obtain a linear product formation. After selected time points, samples were taken and the reaction stopped by addition of 19 volumes 0,1% HCOOH. Cleavage products were quantified in the respective samples by LC/MS-MS assay.

The target of the next assay is T2, DP4 variant E206A (Homo sapiens, UniProt P27487, E206A).
T2 construct: His(6)-37-766 hDP4 containing fractions were concentrated to 1 ml as described above; His6 (N); made in house; host or cells: Pichia pastoris X-33, vector pPICZα C (secreted)
T2 sequence (P27487 37-766 E206A): as the sequence (P27487 37-766 E205A) above, with A169E, E170A counted along it
The assay is described as follows: Km and kcat determination by LC/MS-MS assay. Particulars: hydrolysis of peptide hormone, 10 mM Tris-buffer (pH 7.6), T = 30 °C. The procedure:
as §1

The next assay concerns the target T3, DP4 variant N710A (Homo sapiens, UniProt P27487, N710A).
T3 construct: His(6)-37-766 hDP4 containing fractions were concentrated to 1 ml; made in house; host or cells: Pichia pastoris X-33 (vector pPICZα C, secreted)
The assay is described as follows: Km and kcat determination by LC/MS-MS assay. As to conditions: hydrolysis of peptide hormone, 10 mM Tris-buffer (pH 7.6), T = 30 °C. The procedure:
as §1

The target in a further assay is T4, DP4 variant N710D (Homo sapiens, UniProt P27487, N710D).
T4 construct: His(6)-37-766 hDP4 containing fractions were concentrated to 1 ml; made in house; host or cells: Pichia pastoris X-33 (vector pPICZα C, secreted)
T4 sequence (P27487 37-766 N710D): as the sequence (P27487 37-766 E205A) above, with A169E, N674D counted along it
The assay can be described thus: Km and kcat determination by LC/MS-MS assay. Particulars: hydrolysis of peptide hormone, 10 mM Tris-buffer (pH 7.6), T = 30 °C. The procedure: as §1

For the next assay, the target named is T5, DP4 variant N710Q (Homo sapiens, UniProt P27487, N710Q).
T5 construct: His(6)-37-766 hDP4 containing fractions were concentrated to 1 ml; made in house; host or cells: Pichia pastoris X-33 (vector pPICZα C, secreted)
T5 sequence (P27487 37-766 N710Q): as the sequence (P27487 37-766 E205A) above, with A169E, N674Q counted along it
The assay is described as follows: Km and kcat determination by LC/MS-MS assay. Particulars: hydrolysis of peptide hormone, 10 mM Tris-buffer (pH 7.6), T = 30 °C. The procedure:
as §1

Another assay concerns the target T6, DP4 variant R125A (Homo sapiens, UniProt P27487, R125A).
T6 construct: His(6)-37-766 hDP4 containing fractions were concentrated to 1 ml; made in house; host or cells: Pichia pastoris X-33 (vector pPICZα C, secreted)
The assay can be described thus: Km and kcat determination by LC/MS-MS assay. Particulars: hydrolysis of peptide hormone, 10 mM Tris-buffer (pH 7.6), T = 30 °C. The procedure: as §1

The target of assay [1] is T7, DP4 variant R125K (Homo sapiens, UniProt P27487, R125K).
T7 construct: His(6)-37-766 hDP4 containing fractions were concentrated to 1 ml; made in house; host or cells: Pichia pastoris X-33 (vector pPICZα C, secreted)
T7 sequence (P27487 37-766 R125K): as the sequence (P27487 37-766 E205A) above, with R89K, A169E counted along it
The assay can be described thus: Km and kcat determination by LC/MS-MS assay. Particulars: hydrolysis of peptide hormone, 10 mM Tris-buffer (pH 7.6), T = 30 °C. The procedure: as §1

Assay [2] addresses T8, wild type DP4 (Homo sapiens, UniProt P27487).
T8 construct: His(6)-37-766 hDP4 containing fractions were concentrated to 1 ml; made in house; host or cells: Pichia pastoris X-33 (vector pPICZα C, secreted)
The assay is described as follows: Km and kcat determination by LC/MS-MS assay. As to conditions: hydrolysis of peptide hormone, 10 mM Tris-buffer (pH 7.6), T = 30 °C. The procedure:
as §1

Assay [3] deals with T7, DP4 variant R125K. The assay can be described thus: Cleavage of peptide hormones by MALDI-TOF mass spectrometry. Also noted: key: +++: hydrolysis is comparable with the data obtained from the wild type enzyme; -: hydrolysis below 0,01% of the wild type enzyme. As to conditions: T = 37 °C, 100 mM Tris-HCl, pH 7.6, substrate concentration 25 μM. The procedure: (§2) Enzyme concentration 5 x 10^−9 M, substrate concentration 25 μM, reaction time 1–3 hours, depending on the respective hydrolysis rate. Reactions were stopped by addition of 1 volume DHAP/DAHC-matrix, dissolved in 50% (v/v) acetonitrile, after certain time points. The matrix-sample mixture was placed in a vacuum, which caused the proteins to crystallize together with the matrix. Using the mass spectrometer "LD-TOF System G2025" from Hewlett Packard, the relative amount of substrate and respective product peaks in the samples could be determined. Relative hydrolysis rates were depicted by plotting relative substrate concentration against time.

Assay [4] has as its target T8, wild type DP4. The assay is described as above. Particulars: T = 37 °C, 100 mM Tris-HCl, pH 7.6, substrate concentration 25 μM. The arrangement: key: +++: hydrolysis is comparable with the data obtained from the wild type enzyme; -: hydrolysis below 0,01% of the wild type enzyme. The procedure: as §2

T8 sequence (P27487 37-766): as the sequence (P27487 37-766 E205A) above, with A169E counted along it
T3 sequence (P27487 37-766 N710A): as the sequence (P27487 37-766 E205A) above, with A169E, N674A counted along it
T6 sequence (P27487 37-766 R125A): as the sequence (P27487 37-766 E205A) above, with R89A, A169E counted along it

In the case of “NP Y: physiological DP4 substrate, peptide hormone, proline in P1 position (H2N-Y-P-S…)”, the Km in the assay with DP4 variant E205A is 180 µM; in the assay with DP4 variant E206A, 98 µM; in the assay with DP4 variant N710A, 83 µM; in the assay with DP4 variant N710D, 190 µM; with DP4 variant N710Q, 510 µM; in the assay with DP4 variant R125A, 150 µM. For the same substance, the values for the Km with DP4 variant R125K [1] and in the assay with wild type DP4 [2] were 52 µM and 13 µM, respectively. The kcat in the assay with DP4 variant E205A worked out at 11 ± 0.7 s⁻¹; in the assay with DP4 variant N710A it was 1.8 ± 0.08 s⁻¹; with DP4 variant N710D, 12 ± 0.9 s⁻¹; in the assay with DP4 variant N710Q it was 2.0 ± 0.32 s⁻¹; in the assay with DP4 variant R125A it was 23 ± 0.9 s⁻¹; in the assay with DP4 variant R125K [1], 32 ± 0.5 s⁻¹. The kcat in the assay with wild type DP4 [2] worked out at 37 ± 2.7 s⁻¹. Moreover, the “Hydrolysis of peptide hormone in comparison to the DP4 wild type enzyme” value in the assay with DP4 variant R125K [3] and with wild type DP4 [4] was “+++” throughout.
